Measured values: patent US20250197488A1 (MABWELL SHANGHAI BIOSCIENCE, published 2025)
Substitutions are numbered along the chain they refer to.

T1: IL-11 (Cat. 12225-HNCE, Sino Biological Inc.) (UniProt P20809 22-199, limits assumed)
T1 sequence (looked up): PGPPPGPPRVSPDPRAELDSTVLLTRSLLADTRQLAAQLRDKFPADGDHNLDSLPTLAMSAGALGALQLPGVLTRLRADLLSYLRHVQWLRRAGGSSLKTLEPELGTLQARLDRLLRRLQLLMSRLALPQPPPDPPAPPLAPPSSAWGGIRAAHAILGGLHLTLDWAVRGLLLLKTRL

T2: human IL-11 (AAH12506.1, Pro22-Leu199) (human, UniProt P20809 22-199)
T2 construct: The range Pro22-Leu199 counts on AAH12506.1; The Octet runs say only 'human IL-11'; also called hIL-11
T2 chain: T1 sequence (looked up) with H154L

B1: hz8C8-VHm1 + hz8C8-VLm4 (antibody, human IgG1, kappa, V domains shown)
VH: EVQLVESGGGLVQPGGSLRLSCAASGFTFSSFGMHWVRQAPGKGLEWVAYITPGSNTIYYADTVKGRFTISRDNAKNSLYLQMNSLRAEDTAVYYCAREYYSYDEGFAYWGQGTLVTVSS
VL: EIVLTQSPATLSLSPGERATLSCSVSDLISSNYLHWYQQKPGQAPRLLIYRTSNLASGIPARFSGSGSGTDFTLTISSLEPEDFAVYYCQQGVDVPFTFGQGTKLEIKR
notes: human IgG1 constant regions
B2: hz8C8-VHm1-m2 + hz8C8-VLm7 (antibody, human IgG1, kappa, V domains shown)
VH: B1 VH with Y50S
VL: B1 VL with S30P, N32Q
notes: human IgG1 constant regions
B3: hz8C8-VHm1-m5 + hz8C8-VLm7-m2 (antibody, human IgG1, kappa, V domains shown)
VH: B1 VH with W47Y
VL: B1 VL with S30P, N32Q, R51D, T52A
notes: human IgG1 constant regions
B4: hz8C8-VHm1-m4 + hz8C8-VLm7-m2 (antibody, human IgG1, kappa, V domains shown)
VH: B1 VH with A49S
VL: B1 VL with S30P, N32Q, R51D, T52A
notes: human IgG1 constant regions
B5: hz8C8-VHm1-m7 + hz8C8-VLm7-m2 (antibody, human IgG1, kappa, V domains shown)
VH: B1 VH with A49S, Y50V
VL: B1 VL with S30P, N32Q, R51D, T52A
notes: human IgG1 constant regions
B6: hz8C8-VHm1 + hz8C8-VLm7 (antibody, human IgG1, kappa, V domains shown)
VH: B1 VH
VL: B1 VL with S30P, N32Q
notes: human IgG1 constant regions; also called hz8C8m7
B7: hz8C8-VHm1 + hz8C8-VLm7-m3 (antibody, human IgG1, kappa, V domains shown)
VH: B1 VH
VL: B1 VL with S30P, N32Q, R51G, T52A
notes: human IgG1 constant regions
B8: hz8C8-VHm1-m3 + hz8C8-VLm7-m3 (antibody, human IgG1, kappa, V domains shown)
VH: B1 VH with Y101S
VL: B1 VL with S30P, N32Q, R51G, T52A
notes: human IgG1 constant regions
B9: hz8C8-VHm1-m6 + hz8C8-VLm7-m2 (antibody, human IgG1, kappa, V domains shown)
VH: B1 VH with Y50V
VL: B1 VL with S30P, N32Q, R51D, T52A
notes: human IgG1 constant regions
B10: hz8C8-VHm1-m3 + hz8C8-VLm7-m4 (antibody, human IgG1, kappa, V domains shown)
VH: B1 VH with Y101S
VL: B1 VL with S30P, N32Q, L55R
notes: human IgG1 constant regions
B11: hz8C8-VHm1 + hz8C8-VLm7-m2 (antibody, human IgG1, kappa, V domains shown)
VH: B1 VH
VL: B1 VL with S30P, N32Q, R51D, T52A
notes: human IgG1 constant regions
B12: hz8C8-VHm1-m3 + hz8C8-VLm7-m1 (antibody, human IgG1, kappa, V domains shown)
VH: B1 VH with Y101S
VL: B1 VL with S30P, N32Q, T52A
notes: human IgG1 constant regions
B13: hz8C8-VHm1 + hz8C8-VLm9 (antibody, human IgG1, kappa, V domains shown)
VH: B1 VH
VL: B1 VL with S30P, N32Q, H35A
notes: human IgG1 constant regions
B14: hz8C8-VHm1 + hz8C8-VLm5 (antibody, human IgG1, kappa, V domains shown)
VH: B1 VH
VL: B1 VL with D27E, I29L, S31T
notes: human IgG1 constant regions
B15: hz8C8-VHm1 + hz8C8-VLm7-m4 (antibody, human IgG1, kappa, V domains shown)
VH: B1 VH
VL: B1 VL with S30P, N32Q, L55R
notes: human IgG1 constant regions
B16: hz8C8-VHm1 + hz8C8-VLm7-m1 (antibody, human IgG1, kappa, V domains shown)
VH: B1 VH
VL: B1 VL with S30P, N32Q, T52A
notes: human IgG1 constant regions
B17: hz8C8-VHm1 + hz8C8-VLm6 (antibody, human IgG1, kappa, V domains shown)
VH: B1 VH
VL: B1 VL with D27S, S30P, N32K
notes: human IgG1 constant regions
B18: hz8C8-VHm1 + hz8C8-VLm8 (antibody, human IgG1, kappa, V domains shown)
VH: B1 VH
VL: B1 VL with S30P, N32Q, H35S
notes: human IgG1 constant regions
B19: hz8C8-VHm1-m3 + hz8C8-VLm7-m2 (antibody, human IgG1, kappa, V domains shown)
VH: B1 VH with Y101S
VL: B1 VL with S30P, N32Q, R51D, T52A
notes: human IgG1 constant regions
B20: hz8C8-VHm1-m3 + hz8C8-VLm7 (antibody, human IgG1, kappa, V domains shown)
VH: B1 VH with Y101S
VL: B1 VL with S30P, N32Q
notes: human IgG1 constant regions
B21: hz8C8-VHm1-m1 + hz8C8-VLm7 (antibody, human IgG1, kappa, V domains shown)
VH: B1 VH with F32Y
VL: B1 VL with S30P, N32Q
notes: human IgG1 constant regions

Assays:
[1] = target: T1, IL-11 (Cat. 12225-HNCE, Sino Biological …); test: cell-based or functional assay
[2] = target: T1, IL-11 (Cat. 12225-HNCE, Sino Biological …); test: competition ELISA, IL-11/IL-11Rα/GP130 complex
Procedure: The activity of the recombinant murine anti-IL-11 antibodies for blocking the formation of IL-11/IL-11Rα/GP130 complex was analyzed via competition ELISA. IL-11Rα-His (NP_004503.1, Met1-Val363, C-terminus-6-His Tag) was firstly added into ELISA plates to be coated overnight. Next day, samples were prepared as follows. […] After co-incubating and washing, an HRP conjugated anti-human Fc secondary antibody was added to develop the color which was then detected.
(§1) Then, light and heavy chain expression vectors for preparing mutant antibodies were constructed according to the method for preparing the recombinant antibodies provided in Example 4, using the mutant sequences shown in Table 3 which accordingly were linked with human IgG1 constant regions (SEQ ID NO. 13, and SEQ ID NO.14). Subsequently, the light chain and the heavy chain were reasonably matched and co-transfected into eukaryotic cells for transient expression, and then recombination protein samples of the mutant antibodies were obtained through affinity purification. The samples obtained were tested for affinity on Fortebio Octet, according to the method for measuring affinity provided in Example 1. Further, using the protocol provided in Example 3, hz8C8 and its affinity matured mutants were analyzed for their activity for blocking the formation of IL-11/IL-11Rα/GP130 complex.

[3] = target: T2, human IL-11 (AAH12506.1, Pro22-Leu199); test: BLI (Octet), antibody captured, human IL-11 in solution
Procedure: The affinity of the murine antibodies purified from the hybridoma supernatants was determined using an Octet QKe System instrument from Fortebio Inc. with an anti-mouse IgG Fc Capture biosensor to capture the Fc fragments of the antibodies, for which an anti-IL-11 antibody named “3C6-mFc” recombinantly expressed was used at the same concentration as a positive control. Specifically, a hybridoma supernatant was diluted with HBS-EP+ buffer (GE), and was allowed to pass through the surface of AMC probes (Cat: 18-5088, PALL), and so the antibody in the hybridoma supernatant was captured on the surface of the probes; then, human IL-11 diluted in the HBS-EP+ buffer (300 nM) was used as a mobile phase to react with the antibody captured on the surface of the probes. Both the binding and the dissociating were conducted for 300 seconds. When the experiment was finished, data from which response values of blank controls had been deducted was fitted using a 1:1 Langmuir binding model by software, and then kinetic constants for antigen-antibody binding were calculated. Binding signals were detected on the Octet QKe System instrument with Hy5C2, Hy8C8, Hy16B5, Hy18A10, and Hy18H10.
The affinity of hz18A10 and hz8C8 was determined according to the method provided in Example 1 using AHC bioprobes for capturing human Fc fragment instead, with other conditions unchanged. A recombinantly expressed anti-IL-11 antibody 3C6-hFc was used at the same concentration as a positive control.
as §1, with “1.” for “1. Further, using the protocol provided in Example 3, hz8C8 and its affinity matured mutants were analyzed for their activity for blocking the formation of IL-11/IL-11Rα/GP130 complex.”

Binder	Blocking activity (IC50), STAT3-luc reporter [1]	IC50 [2]	Kd [3]	koff [3]	kon [3]
B1	0.098 µg/mL	0.846 µg/mL	0.161 nM	0.000141 s⁻¹	874000 M⁻¹ s⁻¹
B2	0.052 µg/mL	1.68 µg/mL	3.41 nM	0.00355 s⁻¹	1.04e+06 M⁻¹ s⁻¹
B3	0.194 µg/mL	0.52 µg/mL	0.0594 nM	4.05e-05 s⁻¹	683000 M⁻¹ s⁻¹
B4	0.004 µg/mL	0.79 µg/mL	< 0.001 nM	< 1e-07 s⁻¹	879000 M⁻¹ s⁻¹
B5	0.027 µg/mL	2.14 µg/mL	1.87 nM	0.00111 s⁻¹	595000 M⁻¹ s⁻¹
B6	0.017 µg/mL	0.85 µg/mL	0.00429 nM	3.52e-06 s⁻¹	822000 M⁻¹ s⁻¹
B7	0.017 µg/mL	0.73 µg/mL	0.0795 nM	8.99e-05 s⁻¹	1.13e+06 M⁻¹ s⁻¹
B8	0.022 µg/mL	0.78 µg/mL	< 0.001 nM	< 1e-07 s⁻¹	972000 M⁻¹ s⁻¹
B9	0.034 µg/mL	1.71 µg/mL	2.07 nM	0.00135 s⁻¹	653000 M⁻¹ s⁻¹
B10	0.02 µg/mL	0.47 µg/mL	< 0.001 nM	< 1e-07 s⁻¹	901000 M⁻¹ s⁻¹
B11	0.024 µg/mL	0.74 µg/mL	0.0347 nM	3.7e-05 s⁻¹	1.07e+06 M⁻¹ s⁻¹
B12	0.01 µg/mL	0.55 µg/mL	0.0609 nM	5.81e-05 s⁻¹	954000 M⁻¹ s⁻¹
B13	0.012 µg/mL	0.72 µg/mL	0.0354 nM	3.45e-05 s⁻¹	975000 M⁻¹ s⁻¹
B14	0.1 µg/mL	0.838 µg/mL	0.479 nM	0.000406 s⁻¹	848000 M⁻¹ s⁻¹
B15	0.021 µg/mL	0.69 µg/mL	0.178 nM	0.000178 s⁻¹	1e+06 M⁻¹ s⁻¹
B16	0.068 µg/mL	0.58 µg/mL	0.13 nM	0.000136 s⁻¹	1.05e+06 M⁻¹ s⁻¹
B17	0.076 µg/mL	1.01 µg/mL	0.0412 nM	2.23e-05 s⁻¹	543000 M⁻¹ s⁻¹
B18	0.01 µg/mL	0.7 µg/mL	0.0313 nM	2.97e-05 s⁻¹	948000 M⁻¹ s⁻¹
B19	0.009 µg/mL	0.67 µg/mL	< 0.001 nM	< 1e-07 s⁻¹	945000 M⁻¹ s⁻¹
B20	0.053 µg/mL	0.83 µg/mL	0.0987 nM	0.00011 s⁻¹	1.12e+06 M⁻¹ s⁻¹
B21	0.046 µg/mL	0.75 µg/mL	0.125 nM	0.00013 s⁻¹	1.04e+06 M⁻¹ s⁻¹
